Data set [1] deals with PEPC. Nature of the data set: Effect of calcium and Mg^2+ on PEPC activity. The class given is biochemical, Hyphomicrobium.
Data set [2] has as its system Hyphomicrobium PEPC. To be noted: pH 8.0, 167 mM Tricine buffer + 1 mM MgCl2.
Description: The effect of bicarbonate on the activity of PEPC was evaluated at pH 8.0 in 167 mM Tricine buffer+1 mM MgCl2.
The subject of data set [3] is Hyphomicrobium PEPC. Nature of the data set: Km of Hyphomicrobium PEPC with phosphoenol pyruvate salts. The data set is classed as biochemical. To be noted: pH 7.0 and 25° C. The protocol: The Km's of Hyphomicrobium PEPC were checked with both sodium bicarbonate and phosphoenol pyruvate as substrates.
The result is 0.91 mM for the tricyclohexylammonium salt.

Data set [4] can be described thus: Specific activity of PEPC (malate dehydrogenase/NADH-coupled assay, A340). The class given is biochemical. As for the experimental part: (a) Lysis is performed with a solution of Triton X-100, a non-ionic detergent. It is added to resuspended cells (10% w/v) at 1% v/v. Lysis usually takes about 1 to 1.5 hours at 15° to 20° C. Once lysis is complete, the cell debris is removed by centrifugation with the aid of streptomycin sulphate.
(§1) (b) Column chromatography involves the use of a strong anion exchanger such as Fractogel-TMAE, DEAE sepharose, Q sepharose, DE 52 or QA 52.
(§2) For a large volume of enzyme solution, the absorption can be is carried out as a batch up-take. The gel also has a batch wash prior to packing into the column for a gradient elution.
(§3) The gradient is of increasing salt concentration. The active fractions are pooled to give a specific activity of >30 U/mg but some fractions contain enzyme of 60 U/mg protein.
Lyophilised PEPC powder is obtained, having the following characteristics:
A 167 mM Tricine. HCl buffer, pH 8.0, containing 16.7 mM MgCl2
B 20.7 mM sodium bicarbonate in Reagent A
C 217 mM phosphoenolpyruvate in Reagent A
D 10 mM NADH solution, the concentration of which is checked in the following way:
1 Dispense 0.98 ml of Reagent A into a cuvette and zero a spectrophotometer set at 340 nm with this cuvette
2 Add 0.02 ml of Reagent D to this cuvette and mix thoroughly
E 700 U/ml malate dehydrogenase
1 Adjust spectrophotometer to 340 nm and 25° C.
2 Prepare a reagent cocktail as follows:
Into a 50 ml beaker dispense; 46.0 ml Reagent B 1.0 ml Reagent C
This cocktail is stable for 8 hr when stored at 4° C.
3 Dispense 0.94 ml of the reagent cocktail into a cuvette together with 0.02 ml of Reagent D, and 0.02 ml of Reagent E
Incubate the cuvette in the spectrophotometer at 25° C. to attain temperature equilibration and then establish background rate, if any
4 Dilute the enzyme to approximately 1.5 U/ml in reagent A, and initiate the reaction by adding 0.02 ml of this solution to the cuvette
5 Calculate the change in absorbance (ΔA/rain) over the linear portion of the reaction [formula]

The nature of data set [5]: Storage of enzyme on anion exchange gel: recovery and pool specific activity. The class given is physicochemical. As for the experimental part:
as §1, §2, §3
If stored for longer, then the recoveries begin to decrease.

The nature of data set [6]: Stability of reconstituted enzyme with azide. The class given is physicochemical. As for the experimental part:
The enzyme was stored in assay buffer (167 mM Tricine/HCl with 15 mM MgCl2, pH 8.0).

The nature of data set [7]: pH stability of enzyme solutions stored at 25° C. The data set is classed as physicochemical. The protocol:
For pH 6.0, 8.0 and 9.0, 150 mM Tricine+1 mM MgCl2 was used. For pH 7.0 150 mM bis-tris+1 mM MgCl2 was chosen. Solutions were stored at 25° C.

A short description of data set [8]: Effect of pH on the enzyme activity (buffers and pH changed). The data set is classed as biochemical. The source says:
The effect of pH on the enzyme activity was checked by changing the buffers as well as pH values. Once again, at pH 7 Bis-tris was used.

The nature of data set [9]: Effect of temperature on the activity of PEPC. The data set is classed as biochemical. To be noted: 167 mM tricine pH 7.0, 1 mM MgCl2. As for the experimental part:
The effect of temperature on the activity of PEPC was evaluated. Lyophilised enzyme was resuspended in 167 mM tricine buffer pH 7.0 containing 1 mM MgCl2 at a concentration of 300 u/l. The enzyme was then assayed at the desired temperature using the recommended reagents.

A short description of data set [10]: Effect of pH on the activity of PEPC. The data set is classed as biochemical. As for the experimental part: The effect of pH on the activity of PEPC was evaluated. Lyophilised enzyme was resuspended (10 mg/ml)) in 167 mM Tricine pH 8.0 (+1 mM MgCl2) and diluted to a concentration of 1 u/ml. The enzyme was then assayed in the following buffer systems. At pH 6.0, 8.0 and 9.0 Tricine (150 mM) was used. At pH 6.5 and 7.0 bis-tris (150 mM) was used.

The conditions of data set [11]: lyophilised.
Description: Stability trials have been conducted on lyophilised enzyme, at 4° C., 25° C. and 37° C.
All recoveries are based on specific activity to rule out weighing errors.
The conditions of data set [12]: pH 7.
For data set [13] the following is noted: isolated enzyme.
[14] abbreviates: after anion exchange gradient elution.

From patent US5514538A, “Bicarbonate assay and phosphoenolpyruvate carboxylase enzyme from hyphomicrobium” (Genzyme Limited, priority 1990, dated 1996) come the findings set out here.

Structures can show the parent of a compound that is named as a salt. Where two headings read alike, the source gives them in different places.

Consider `[Mg+2]` [Mg^2+], for which the “activation of the enzyme” value in data set [1] is listed as “only effective activator of the enzyme”. Besides, the “activation, chloride vs sulphate” value in data set [1] (chloride compound compared with sulphate) is listed as “works better as the chloride compound than as the sulphate”.

For `O=C(O)O` [bicarbonate, sodium bicarbonate], the Michaelis constant (Km) – broadly, the concentration of substrate that gives half-maximal velocity – in data set [2] was 1300 µM; in data set [2] (read-out: Km (probable, without dissolved carbon dioxide from the atmosphere)) it was under 1000 µM.

Consider `[Ca+2]` [calcium], for which the “effect on PEPC activity” value in [1] (low concentrations) is given as “inhibitory effect”.

For the compound `C=C(OP(=O)(O)O)C(=O)O` [tricyclohexylammonium salt, phosphoenol pyruvate], in data set [3], the Km was 910 µM and the “Km, comparison of PEP salts” value is reported as “very similar”.

Turning to phosphoenolpyruvate carboxylase [PEPC], the “specific activity of pooled active fractions” value in [4] (setting [14]) is over 30 U/mg. In addition, in data set [4] (setting [14]), the “specific activity of some fractions” value is 60 U/mg protein. In data set [4] (lyophilised PEPC powder), the Powder activity was over 10 U/mg. The compound also returned a Specific activity in data set [4] (lyophilised PEPC powder) of over 25 U/mg Protein. The “Pool S/A” value in data set [5] (0 days stored on gel) came out at 37.4 U/mg; in [5] (2 days stored on gel) it was 33.0 U/mg; in data set [5] (4 days stored on gel), 28.1 U/mg; in data set [5] (8 days stored on gel) it was 26.9 U/mg. In addition, the Total recovery is 91% in data set [5] (0 days stored on gel), 85% in data set [5] (2 days stored on gel), 76% in data set [5] (4 days stored on gel) and 60% in data set [5] (8 days stored on gel). In addition, the “loss of activity on gel” value in data set [5] (held on the gel overnight) is on record as “no loss of activity”. Besides, the “% activity recovered” value in [6] (pH 8.0, 4 days, 4° C.) came out at 94%; in [6] (pH 8.0, 4 days, 25° C.) it was 104%; in data set [6] (pH 8.0, 4 days, 37° C.) it was 2%; in [6] (pH 8.0, 7 days, 4° C.), 96%; in data set [6] (pH 8.0, 7 days, 25° C.) it was 92%; in [6] (pH 8.0, 7 days, 37° C.) it was 0%. The “% activity recovered” value in data set [6] (pH 8.0, 14 days, 4° C.) worked out at 94%; in data set [6] (pH 8.0, 14 days, 25° C.), 93%; in [6] (pH 8.0, 30 days, 4° C.), 100%; in [6] (pH 8.0, 30 days, 25° C.) it was 86%; in [6] (pH 8.0, 42 days, 4° C.), 105%; in data set [6] (pH 8.0, 42 days, 25° C.), 85%. For the same compound, the “% activity recovered” value is listed as 105% in data set [6] (pH 8.0, 63 days, 4° C.); 66% in data set [6] (pH 8.0, 63 days, 25° C.); 69% in data set [7] (pH 6, 7 days, Tricine); 45.5% in [7] (pH 6, 12 days, Tricine); 99% in data set [7] (pH 7, 7 days, bis-tris); 78.2% in data set [7] (pH 7, 12 days, bis-tris). Also, the “% activity recovered” value was 81.8% in [7] (pH 8, 7 days, Tricine); 67.3% in data set [7] (pH 8, 12 days, Tricine); 78.2% in [7] (pH 9, 7 days, Tricine); 56.4% in [7] (pH 9, 12 days, Tricine); 65.5% in data set [8] (pH 6); 74.5% in [8] (pH 6.5). Besides, the “% activity recovered” value is given as 100% in data set [8] (pH 7.0, Bis-tris); 88.2% in data set [8] (pH 8.0); 74.5% in data set [8] (pH 9.0); 100% in data set [11] (0 days, 4° C.); 100% in data set [11] (0 days, 25° C.); 100% in data set [11] (0 days, 37° C.). For the same compound, the “% activity recovered” value in data set [11] (3 days, 25° C.) is 95%; in [11] (3 days, 37° C.), 97%; in data set [11] (7 days, 4° C.), 83%; in [11] (7 days, 25° C.), 83%; in data set [11] (7 days, 37° C.), 87%; in [11] (10 days, 25° C.), 94%. The “% activity recovered” value in data set [11] (10 days, 37° C.) worked out at 91%; in [11] (18 days, 4° C.) it was 92%; in data set [11] (18 days, 25° C.) it was 88%; in [11] (18 days, 37° C.), 90%; in data set [11] (24 days, 25° C.), 90%; in data set [11] (24 days, 37° C.), 87%. The “% activity recovered” value was 114% in data set [11] (50 days, 4° C.) and 110% in data set [11] (77 days, 4° C.). The relative activity entry was “approximately 10%” in data set [9] (20° C.); 100% in [9] (50° C.); “approximately 10%” in [9] (55° C.); “approximately 70%” in data set [10] (pH 6.0, Tricine (150 mM)); about 85% in data set [10] (pH 6.5, bis-tris (150 mM)); about 115% in data set [10] (pH 7.0, bis-tris (150 mM)). Moreover, the relative activity in data set [10] (pH 8.0, Tricine (150 mM)) was about 100%; in [10] (pH 9.0, Tricine (150 mM)), about 90%. For the same compound, in data set [12], the stability and activity entry is “better stability and activity”. The pH profile entry in data set [13] is “broad pH profile”.
